Test results taken from the supplement of paper PMC7125110.
± gives the standard error. For some assays here: This sample holds only a part of the variants without activity.

B1: glmS ribozyme (parent)
chain: AUAAAAGCGCCAGAACUACAGAAAUGUAGUUGACGAGGAGGAGGUUUAUCGAAUUUUCGGCGGAUGCCUCCAAA

Key:
Settings in all cases: with glucosamine-6-phosphate
[1] = variants of: B1; experiment: kcat; higher = faster cleavage; RNA array
Procedure, shortened: (§1)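 On sequenced MiSeq chips, barcoded ribozyme variants were made in situ by E. coli RNA polymerase and followed at 37 °C through a hybridised Cy3 probe. Glucosamine-6-phosphate was flowed in at 40 μM to 10 mM in HEPES/KCl/Mg(OAc)2 buffer. Exponential fits to normalised per-tile medians gave kobs, and weighted Michaelis–Menten fits gave kcat and KM.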

[2] = variants of: B1; experiment: KM; higher = weaker cofactor use; RNA array
Procedure, shortened: as §1

[3] = variants of: B1; experiment: self-cleavage kobs at 40 uM GlcN6P; higher = faster cleavage; RNA array
Procedure, shortened: as §1

[4] = variants of: B1; experiment: self-cleavage kobs at 160 uM GlcN6P; higher = faster cleavage; RNA array
Procedure, shortened: as §1

[5] = variants of: B1; experiment: self-cleavage kobs at 640 uM GlcN6P; higher = faster cleavage; RNA array
Procedure, shortened: as §1

[6] = variants of: B1; experiment: self-cleavage kobs at 2500 uM GlcN6P; higher = faster cleavage; RNA array
Procedure, shortened: as §1

[7] = variants of: B1; experiment: self-cleavage kobs at 10000 uM GlcN6P; higher = faster cleavage; RNA array
Procedure, shortened: as §1

Variant | kcat [1] [s⁻¹] | KM [2] [µM] | self-cleavage kobs at 40 uM GlcN6P [3] [s⁻¹] | self-cleavage kobs at 160 uM GlcN6P [4] [s⁻¹] | self-cleavage kobs at 640 uM GlcN6P [5] [s⁻¹] | self-cleavage kobs at 2500 uM GlcN6P [6] [s⁻¹] | self-cleavage kobs at 10000 uM GlcN6P [7] [s⁻¹]
G43U C68G | 0.00617 ± 0.0012 | 527 ± 180 | 0.000533 ± 9.6e-05 | 0.00129 ± 0.00028 | 0.00304 ± 0.00052 | 0.00416 ± 0.0011 | 0.00756 ± 0.0013
C58G C71G | 2.97e-05 ± 5.4e-06 |  |  |  | 3.12e-05 ± 1.3e-05 | 3.56e-05 ± 1.5e-05 | 
C10A U31G | < 1e-05 |  |  |  | < 1e-05 | < 1e-05 | 
G32U A36U | < 1e-05 |  | < 1e-05 | < 1e-05 |  |  | < 1e-05
U30C C70U | 0.000529 ± 0.00014 | 1890 ± 790 |  | 6.03e-05 ± 7.8e-06 | 0.000125 ± 1e-05 | 0.000261 ± 2.9e-05 | 0.000536 ± 5.9e-05
C10U C68G C70U | 7.35e-05 ± 2.9e-05 |  |  | 3.3e-05 ± 1.5e-05 | 0.00013 ± 2.8e-05 | 5.98e-05 ± 1.4e-05 | 
G35A C71G | < 1e-05 |  |  | < 1e-05 | < 1e-05 |  | 
U57A U69G | 4.58e-05 ± 6.6e-06 |  |  | 3.35e-05 ± 1.6e-05 | 5.15e-05 ± 1.3e-05 | 3.88e-05 ± 1.3e-05 | 
U31G C50U | 2.22e-05 ± 1.4e-06 |  | < 1e-05 |  |  |  | 
G37A G66C | 0.000578 ± 0.0001 | 2250 ± 630 |  | 4.54e-05 ± 1.4e-05 | 0.000117 ± 1.8e-05 | 0.000357 ± 5.8e-05 | 0.000439 ± 8.7e-05
G43U A53U | 2.65e-05 ± 2.2e-06 | 2760 ± 880 |  | < 1e-05 |  |  | 
G43U A53G | 4.73e-05 ± 1.7e-06 | 793 ± 120 | < 1e-05 |  |  | 3.6e-05 ± 1.5e-05 | 
A39U C67U | 0.0107 ± 0.0018 | 2220 ± 500 | 0.000223 ± 1.9e-05 | 0.000573 ± 8.1e-05 | 0.00228 ± 0.00025 | 0.00631 ± 0.001 | 0.00878 ± 0.00079
A39U C67A | 0.00981 ± 0.0028 | 2330 ± 910 | 0.000197 ± 2.5e-05 | 0.000759 ± 0.00012 | 0.0015 ± 0.00027 | 0.00477 ± 0.0011 | 0.00878 ± 0.0012
C16U G44A | 0.000353 ± 9.4e-05 |  |  |  | 7.56e-05 ± 1.5e-05 | 0.000392 ± 7.1e-05 | 0.000277 ± 3.6e-05
G41C U46A | 0.00012 ± 1.2e-05 | 3110 ± 830 |  |  |  | 5.8e-05 ± 1.3e-05 | 9.03e-05 ± 1.3e-05
